Measured values as given in patent publication US10314894B2, “Treatment of cardio-renal disease using PCSK6” (THE CLEVELAND CLINIC FOUNDATION, priority 2014, dated 2019).
Substitutions are numbered along the chain they refer to.

Tests used:
[1] = target: T1, corin variant T555I/Q568P (Homo sapiens, UniProt Q9Y5Q5, Q568P/T555I); assay: PCSK6-mediated corin activation in HEK293 cells, corin variant T555I/Q568P; type: cell-based; conditions: corin T555I/Q568P mutant, Western, densitometry
T1 construct: expressed in transfected cells; host or cells: HEK293
T1 sequence (Q9Y5Q5 1-1042 T555I/Q568P): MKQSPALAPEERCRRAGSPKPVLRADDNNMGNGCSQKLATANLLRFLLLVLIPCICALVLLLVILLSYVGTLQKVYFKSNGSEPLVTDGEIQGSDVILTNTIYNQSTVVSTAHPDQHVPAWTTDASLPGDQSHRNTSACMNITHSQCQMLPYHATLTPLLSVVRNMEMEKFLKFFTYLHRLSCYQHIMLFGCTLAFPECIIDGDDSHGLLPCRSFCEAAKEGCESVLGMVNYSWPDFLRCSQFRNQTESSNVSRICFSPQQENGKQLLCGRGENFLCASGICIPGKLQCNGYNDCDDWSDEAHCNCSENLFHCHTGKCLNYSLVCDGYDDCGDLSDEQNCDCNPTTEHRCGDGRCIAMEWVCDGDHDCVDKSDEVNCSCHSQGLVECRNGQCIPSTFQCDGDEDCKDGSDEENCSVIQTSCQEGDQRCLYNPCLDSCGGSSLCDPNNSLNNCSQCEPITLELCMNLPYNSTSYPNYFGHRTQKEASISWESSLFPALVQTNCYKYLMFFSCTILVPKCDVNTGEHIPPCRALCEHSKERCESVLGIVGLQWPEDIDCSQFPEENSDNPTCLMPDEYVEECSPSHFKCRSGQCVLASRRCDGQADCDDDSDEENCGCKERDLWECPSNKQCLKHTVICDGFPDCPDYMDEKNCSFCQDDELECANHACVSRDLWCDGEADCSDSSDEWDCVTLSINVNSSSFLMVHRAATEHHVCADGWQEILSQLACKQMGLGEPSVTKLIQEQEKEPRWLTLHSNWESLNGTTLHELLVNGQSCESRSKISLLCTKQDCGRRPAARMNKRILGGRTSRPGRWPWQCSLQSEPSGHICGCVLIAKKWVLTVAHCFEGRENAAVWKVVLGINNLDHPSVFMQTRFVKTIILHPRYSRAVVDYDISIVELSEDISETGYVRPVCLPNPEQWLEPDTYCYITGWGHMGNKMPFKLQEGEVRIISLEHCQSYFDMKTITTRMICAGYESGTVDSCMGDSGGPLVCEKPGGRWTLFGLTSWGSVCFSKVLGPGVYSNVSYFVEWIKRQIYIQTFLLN
Description: (§1) Plasmids expressing human corin WT and mutants R801A, S985A, T555I, Q568P, T555I/Q568P, K317E, S472G and R539C were reported previously. Dong, N. et al., J Biol Chem 289, 17909-17916 (2014); Knappe et al., J Biol Chem 278, 52363-52370 (2003); Wu et al., J Biol Chem 277, 16900-16905. (2002). Plasmids expressing human PCSK1-9 were made by cloning respective cDNAs into pcNDA3.1 vector. Recombinant corin and PCSK proteins encoded by these plasmids contained a C-terminal V5 or flag tag for protein detection in Western blotting.
HEK293 and HL-1 cells were transfected with corin or PCSK6 expression plasmids. After 48-72 h, cells were lysed in a buffer containing 25 mM Tris-HCl, pH 7.4, 150 mM NaCl, 1 mM EDTA, 1% (v/v) NP-40, and 1% (v/v) protease inhibitor cocktail. Recombinant corin and PCSK6 proteins were immunoprecipitated with an anti-V5 or anti-flag antibody. Western blotting was carried out to analyze corin expression and activation or PCSK6 expression with or without reducing agents. Percentage of corin activation (corin-p vs. corin fragments) was quantified by densitometric analysis of Western blots.

recombinant human corin = target: T2, recombinant human corin (Homo sapiens, UniProt Q9Y5Q5); assay: PCSK1-9 plasmids transfected in HEK293 cells expressing recombinant human corin (Western analysis); type: cell-based; conditions: plasmid transfected
T2 construct: expressed in transfected cells; host or cells: HEK293
T2 sequence (Q9Y5Q5 1-1042): T1 sequence (Q9Y5Q5 1-1042 T555I/Q568P) with I555T, P568Q
Description: The PCSK family has 9 members. PCSK1-9 plasmids were transfected in HEK293 cells expressing recombinant human corin. […] By RT-PCR, PCSK6 mRNA was detected in HEK293 and HL-1 cells and in mouse and human hearts where corin is normally expressed. Yan et al., J Biol Chem 274, 14926-14935 (1999). The results were consistent with previous reports of PCSK6 expression in atrial and ventricular cardiomyocytes. Beaubien et al., Cell Tissue Res 279, 539-549 (1995).
as §1
HEK293 and HL-1 cells were transfected with corin or PCSK6 expression plasmids. After 48-72 h, cells were lysed in a buffer containing 25 mM Tris-HCl, pH 7.4, 150 mM NaCl, 1 mM EDTA, 1% (v/v) NP-40, and 1% (v/v) protease inhibitor cocktail. […] Percentage of corin activation (corin-p vs. corin fragments) was quantified by densitometric analysis of Western blots.

PCSK6-mediated corin activation, reduction vs. WT (in words) [1]: markedly reduced
corin activation on PCSK overexpression (loss of corin zymogen band) (recombinant human corin): enhanced corin activation
B1: proprotein convertase subtilisin/kexin-6 (protein, listed as Homo sapiens)
chain: MPPRAPPAPGPRPPPRAAAATDTAAGAGGAGGAGGAGGPGFRPLAPRPWRWLLLLALPAACSAPPPRPVYTNHWAVQVLGGPAEADRVAAAHGYLNLGQIGNLEDYYHFYHSKTFKRSTLSSRGPHTFLRMDPQVKWLQQQEVKRRVKRQVRSDPQALYFNDPIWSNMWYLHCGDKNSRCRSEMNVQAAWKRGYTGKNVVVTILDDGIERNHPDLAPNYDSYASYDVNGNDYDPSPRYDASNENKHGTRCAGEVAASANNSYCIVGIAYNAKIGGIRMLDGDVTDVVEAKSLGIRPNYIDIYSASWGPDDDGKTVDGPGRLAKQAFEYGIKKGRQGLGSIFVWASGNGGREGDYCSCDGYTNSIYTISVSSATENGYKPWYLEECASTLATTYSSGAFYERKIVTTDLRQRCTDGHTGTSVSAPMVAGIIALALEANSQLTWRDVQHLLVKTSRPAHLKASDWKVNGAGHKVSHFYGFGLVDAEALVVEAKKWTAVPSQHMCVAASDKRPRSIPLVQVLRTTALTSACAEHSDQRVVYLEHVVVRTSISHPRRGDLQIYLVSPSGTKSQLLAKRLLDLSNEGFTNWEFMTVHCWGEKAEGQWTLEIQDLPSQVRNPEKQGKLKEWSLILYGTAEHPYHTFSAHQSRSRMLELSAPELEPPKAALSPSQVEVPEDEEDYTAQSTPGSANILQTSVCHPECGDKGCDGPNADQCLNCVHFSLGSVKTSRKCVSVCPLGYFGDTAARRCRRCHKGCETCSSRAATQCLSCRRGFYHHQEMNTCVTLCPAGFYADESQKNCLKCHPSCKKCVDEPEKCTVCKEGFSLARGSCIPDCEPGTYFDSELIRCGECHHTCGTCVGPGREECIHCAKNFHFHDWKCVPACGEGFYPEEMPGLPHKVCRRCDENCLSCAGSSRNCSRCKTGFTQLGTSCITNHTCSNADETFCEMVKSNRLCERKLFIQFCCRTCLLAG
modifications: C-terminal FLAG tag
